# Laboratory results taken from patent publication US9463217B1, “Methods and pharmaceutical compositions for treatment of retinal occlusion” (Institut National de la Sante et de la Recherche Medicale, priority 2012, dated 2016).
# B1: Annexin V: recombinant, purified annexin V (BD Biosciences); binds to PS (protein, UniProt P08758 2-320, looked up)
# Annexin A5: AQVLRGTVTDFPGFDERADAETLRKAMKGLGTDEESILTLLTSRSNAQRQEISAAFKTLFGRDLLDDLKSELTGKFEKLIVALMKPSRLYDAYELKHALKGAGTNEKVLTEIIASRTPEELRAIKQVYEEEYGSSLEDDVVGDTSGYYQRMLVVLLQANRDPDAGIDEAQVEQDAQALFQAGELKWGTDEEKFITIFGTRSVSHLRKVFDKYMTISGFQIEETIDRETSGNLEQLLLAVVKSIRSIPAYLAETLYYAMKGAGTDDHTLIRVMVSRSEIDLFNIRKEFRKNFATSLYSMIKGDTSGDYKKALLLLCGEDD
# Assays:
# [1] = test system: RBC adhesion in SCD; settings: treatment by hydroxyurea, ref. [32]; cited from earlier work
# [2] = test system: adhesion of red blood cells (RBCs) from patients with central retinal vein occlusion to human microvascular endothelial cells (HMEC-1); experiment: RBC adhesion to HMEC under static conditions (radiometric 51Cr technique), inhibition by antibodies, peptide or annexin V; assay type: cell-based
# Protocol: (§1) Blood samples were tested after storage at −196° C. as previously described. For the first 10 patients, RBC adhesion (on three occasions, n=30) was measured just after blood sampling and after storage. As the results were similar before and after storage (the interassay coefficient of variation was 13%±2%) all remaining patients were tested after storage.
# RBC adhesion was measured under static conditions using a radiometric technique as previously described. Human microvascular endothelial cells (HMEC-1 Biological Branch Products; CDC, Atlanta, Ga., USA) were cultured in MCDB-131 (Invitrogen, Grand Island, N.Y., USA) supplemented with 15% fetal calf serum (D. Dutscher, Brumath, France), endothelial growth factor (10 ng mL^−1) and hydrocortisone (1 μg mL^−1)(Invitrogen). […] Radioactivity in the lysate was measured in a gamma counter, and adhesion was then calculated as RBCs per square millimeter. […] Inhibition of RBC adhesion was assessed using HMEC preincubated with specific antibodies directed against PS receptor (polyclonal anti-PS receptor antibody, Sigma, St Louis, Mo., USA; polyclonal anti-human stabilin-2 antibody, R&D systems, Minneapolis, Minn., USA) or against human CD36 (monoclonal anti-CD36/SR-B3; R&D systems) or antihuman Brain-specific angiogenesis inhibitor-1 (BAI-1; Santa Cruz Biotechnology, Santa Cruz, Calif., USA). […]
# [3] = test system: adhesion of red blood cells (RBCs) from patients with central retinal vein occlusion to human microvascular endothelial cells (HMEC); experiment: RBC adhesion to HMEC under flow conditions (microslides, video-microscopy), inhibition by antibodies, peptide or annexin V; assay type: cell-based
# Protocol: as §1
# Adhesion of RBCs to HMEC under flow conditions was determined according to a previously published technique. Briefly, HMEC were cultured in gelatin (2%) coated glass capillaries (microslides; Camlab Ltd, Cambridge, UK) for 24 h. Microslides containing confluent HMEC were mounted on the stage of a video-microscope. The RBC suspension (hematocrit 0.5%) was perfused through the microslide at a flow rate equivalent to a wall shear stress of 0.03 Pa for […], followed by washout of non-adherent cells for 10 min. The wall shear stress was then increased stepwise (from 0.03 to 0.3 Pa) every 5 min. At each step, adherent RBCs were video-recorded in 10 consecutive fields (one field measures 0.1 mm^2), then were counted using a computerized image analysis system (Optimas Media Cybernetics, Bethesda, Md., USA; R & D Vision, Paris, France) and expressed as number of RBCs per mm^2. Inhibition of RBC adhesion was measured in the presence of the antibodies used in static conditions or after RBC incubation with annexin V.
Molecule,effect on RBC adhesion (in words) [1],inhibition of CRVO RBC adhesion to HMEC [2] [%],inhibition of CRVO RBC adhesion to HMEC ([3]; according to the shear stress),inhibition of CRVO RBC adhesion to HMEC ([3]; shear stress 0.1 Pa),inhibition of CRVO RBC adhesion to HMEC ([3]; shear stress 0.3 Pa)
NC(=O)NO [hydroxyurea],reduced RBC adhesion,,,,
B1,,35,68-74%,75%±6%,74%±8%
